Like-named read-outs stand apart in the source and are kept apart here. Where a SMILES comes first, the peptide text is derived from it. [ ]: non-standard residue; d: D form. The star is where a group is joined. 5FAM = O=C1OC2(c3ccc(O)cc3Oc3cc(O)ccc32)c2ccc(C(=O)*)cc21; hSer = N[C@@H](CCO)C(=O)O; Nva = CCC[C@H](N)C(=O)O; Abu = CC[C@H](N)C(=O)O; βAla = NCCC(=O)O
Experiments:
[1] = target: T1, porcine calpain-1 (Sus scrofa, UniProt P04574); assay: Fluorescence polarization binding assay of labelled calpastatin peptides with purified calpain; details: calpain titrated into 500 nM labelled peptide; 50 mM NaP, 50 mM NaCl, 5 mM BME, 1 mM CaCl2, 1 mM EDTA, pH 8.0; room temperature; 3 polarization readings averaged per concentration; single state binding model; read-out: Experimental KD
T1 construct: GST (N, cleaved yes); made in house; host or cells: E. coli (pET41b vector)
T1 sequence (P04574 94-266 limits assumed): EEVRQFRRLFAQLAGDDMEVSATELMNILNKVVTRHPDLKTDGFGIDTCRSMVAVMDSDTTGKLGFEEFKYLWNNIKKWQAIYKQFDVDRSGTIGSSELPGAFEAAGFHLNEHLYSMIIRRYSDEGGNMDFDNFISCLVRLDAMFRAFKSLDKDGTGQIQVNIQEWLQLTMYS
Experimental: Calpain was expressed as a GST-fusion protein in E. coli that had been transfected with a pet41b vector that contained the gene encoding porcine calpain-1. The cells were grown in Luria-Bertani broth with 50 ug/ml kanamycin at 37 degrees Celsius to an OD600 of 0.6 at which point 1 mM isopropyl β-D-1-thiogalactopyranoside (IPTG) was added to induce expression. Cells were grown for an additional 4 hours and harvested by centrifugation. Cells were resuspended in a buffer containing 50 mM NaPO4, 150 mM NaCl, 5 mM BME at pH 8.0 and lysed by sonication. Lysate was centrifuged at 12500 g for 30 minutes and the supernatant was run over a GSTrap-FF column that had been equilibrated with the lysis buffer. After loading, the column was washed with 10 column volumes of the lysis buffer before the GST-calpain was eluted with 50 mM Tris and 10 mM reduced glutithione, pH 8.0. The eluent was monitored by absorbance at 280 nm.5 mL fractions were collected. Those fractions which absorbed at 280 nm were pooled. Thrombin was added to separate the calpain from the GST and the cleavage reaction was allowed to cleave overnight at 4 Celsius. To remove the GST the protein was further purified with a Sephacryl S-200 gel filtration column using a buffer containing 50 mM NaPO4, 50 mM NaCl, 5 mM BME, 1 mM CaCl2, 1 mM EDTA at pH 8.0. The protein was concentrated through centrifugation via a spin column with a 15 K molecular weight cutoff and found to be pure and ran true to predicted size on SDS-PAGE gels.
Purified calpain was manually titrated in to a solution containing 500 nM calpastatin with 50 mM NaP, 50 mM NaCl, 5 mM BME, 1 mM CaCl2, 1 mM EDTA at pH 8.0, till the change in fluorescence polarization reached a plateau. Binding assays were performed at room temperature, 3 polarization readings were averaged for each concentration. Disassociation constants were calculated by fitting the data to a single state binding model using Sigma plot software.

[2] = target: T2, calpastatin peptide Asp609 to 1-methyl-histidine (5FAM–βALA–…(1MH)FTS-amide); assay: fluorescence polarisation; purified calpain manually titrated into 500 nM labelled calpastatin peptide; 50 mM NaP, 50 mM NaCl, 5 mM BME, 1 mM CaCl2, 1 mM EDTA, pH 8.0; room temperature; single state binding model
T2 chain: PDDAIDALSDHFTS

[3] = target: T3, calpastatin peptide Asp609 to homoserine (5FAM–βALA–…(HSE)–FTS-amide); assay: as above
T3 chain: PDDAIDALSDXFTS

[4] = target: T4, calpastatin peptide Phe610 to 4-methyl-phenylalanine (FITC–βALA–…(4MF)TS-amide); assay: as above
T4 chain: PDDAIDALSDDFTS

[5] = target: T5, calpastatin peptide Ser607 to amino butyric acid (5FAM–βALA–PDDAIDAL(ABU)DDFTS-amide); assay: as above
T5 chain: PDDAIDALXDDFTS

[6] = target: T6, calpastatin peptide Ser607 to norvaline (5FAM–βALA–PDDAIDAL(NVL)DDFTS-amide); assay: as above
T6 chain: PDDAIDALXDDFTS

[7] = target: T7, wild type calpastatin subdomain C peptide, 5FAM-labelled (5FAM–βALA–…-amide); assay: as above
T7 chain: PDDAIDALSDDFTS

[8] = target: T8, wild type calpastatin subdomain C peptide, FITC-labelled (FITC–βALA–…-amide); assay: as above
T8 chain: PDDAIDALSDDFTS

[9] = target: T8, wild type calpastatin subdomain C …; assay: as above

In the case of `CCC[C@H](NC(=O)[C@H](CC(C)C)NC(=O)[C@H](C)NC(=O)[C@H](CC(=O)O)NC(=O)[C@@H](NC(=O)[C@H](C)NC(=O)[C@H](CC(=O)O)NC(=O)[C@H](CC(=O)O)NC(=O)[C@@H]1CCCN1C(=O)CCNC(=O)c1ccc2c(c1)C(=O)OC21c2ccc(O)cc2Oc2cc(O)ccc21)[C@@H](C)CC)C(=O)N[C@@H](CC(=O)O)C(=O)N[C@@H](CC(=O)O)C(=O)N[C@@H](Cc1ccccc1)C(=O)N[C@H](C(=O)N[C@@H](CO)C(N)=O)[C@@H](C)O` [NVL (5FAM)] ({5FAM-βAla}-PDDAIDAL[Nva]DDFTS-NH2), the Kd [1] is reported as 8.56 ± 0.95 µM.

In the case of `CC[C@H](C)[C@H](NC(=O)[C@H](C)NC(=O)[C@H](CC(=O)O)NC(=O)[C@H](CC(=O)O)NC(=O)[C@@H]1CCCN1C(=O)CCNC(=O)c1ccc2c(c1)C(=O)OC21c2ccc(O)cc2Oc2cc(O)ccc21)C(=O)N[C@@H](CC(=O)O)C(=O)N[C@@H](C)C(=O)N[C@@H](CC(C)C)C(=O)N[C@@H](CO)C(=O)N[C@@H](CC(=O)O)C(=O)N[C@@H](CC(=O)O)C(=O)N[C@@H](Cc1ccccc1)C(=O)N[C@H](C(=O)N[C@@H](CO)C(N)=O)[C@@H](C)O` [WT (5FAM), reference compound] ({5FAM-βAla}-PDDAIDALSDDFTS-NH2), the Kd [1] is reported as 6.6 ± 0.65 µM.

Work on `CC[C@H](C)[C@H](NC(=O)[C@H](C)NC(=O)[C@H](CC(=O)O)NC(=O)[C@H](CC(=O)O)NC(=O)[C@@H]1CCCN1C(=O)CCNC(=O)c1ccc2c(c1)C(=O)OC21c2ccc(O)cc2Oc2cc(O)ccc21)C(=O)N[C@@H](CC(=O)O)C(=O)N[C@@H](C)C(=O)N[C@@H](CC(C)C)C(=O)N[C@@H](CO)C(=O)N[C@@H](CC(=O)O)C(=O)N[C@@H](CCO)C(=O)N[C@@H](Cc1ccccc1)C(=O)N[C@H](C(=O)N[C@@H](CO)C(N)=O)[C@@H](C)O` [HSE (5FAM)] ({5FAM-βAla}-PDDAIDALSD[hSer]FTS-NH2) yielded a Kd [1] of 7.48 ± 0.68 µM.

With `CC[C@H](NC(=O)[C@H](CC(C)C)NC(=O)[C@H](C)NC(=O)[C@H](CC(=O)O)NC(=O)[C@@H](NC(=O)[C@H](C)NC(=O)[C@H](CC(=O)O)NC(=O)[C@H](CC(=O)O)NC(=O)[C@@H]1CCCN1C(=O)CCNC(=O)c1ccc2c(c1)C(=O)OC21c2ccc(O)cc2Oc2cc(O)ccc21)[C@@H](C)CC)C(=O)N[C@@H](CC(=O)O)C(=O)N[C@@H](CC(=O)O)C(=O)N[C@@H](Cc1ccccc1)C(=O)N[C@H](C(=O)N[C@@H](CO)C(N)=O)[C@@H](C)O` [ABU (5FAM)] ({5FAM-βAla}-PDDAIDAL[Abu]DDFTS-NH2) the Kd [1] was 5.8 ± 1.2 µM.

B1: porcine calpain-1 (enzyme)
chain: EEVRQFRRLFAQLAGDDMEVSATELMNILNKVVTRHPDLKTDGFGIDTCRSMVAVMDSDTTGKLGFEEFKYLWNNIKKWQAIYKQFDVDRSGTIGSSELPGAFEAAGFHLNEHLYSMIIRRYSDEGGNMDFDNFISCLVRLDAMFRAFKSLDKDGTGQIQVNIQEWLQLTMYS
modifications: not checked
B1 was tested, and the Kd [2] was 5.81 µM, the Kd [3] was 7.48 µM and the Kd [4] was 2600 nM. The Kd [5] was 5.8 µM, the Kd [6] was 8.56 µM and the Kd [7] was 6.6 µM. It also gave a Kd [8] of 5.77 µM and a Kd [9] of 5.8 mM.

Source: publication PMC3303795, “Incorporation of Noncanonical Amino Acids into Rosetta and Use in Computational Protein-Peptide Interface Design” (PLoS ONE, 2012)
